Read-outs that look alike come from different tables or passages of the source.
Tests used:
ERK [1] = format: cell-based, murine; conditions: NRTN 200 ng/ml; vehicle 0.18±0.04
GFRα2-RET = GFRα2-RET (Homo sapiens, UniProt P07949); test: RET phosphorylation assay, GFRα2 transfected MG87RET cells; format: cell-based; conditions: NRTN 200 ng/ml, 15 min; vehicle 0.86±0.15
AKT [2] = format: cell-based, murine; conditions: NRTN 200 ng/ml; vehicle 0.63±0.02
[3] = tested on: RET knockout midbrain dopamine neurons (TH-ir cells); test: Survival assay for primary dopamine neurons, RET knockout; format: cell-based, mouse; conditions: GDNF 10 ng/ml (≃[…]), 5th day in vitro
6-OHDA lesioned rats [4] = test: TH-ir neurite number in the striatum; format: in vivo, rat; conditions: BT44 0.1 and 0.3 μg/24 h, GDNF 3 μg/24 h; newly developed algorithm
RET = RET (Homo sapiens, UniProt P07949); test: RET phosphorylation assay, GFP transfected MG87RET cells; format: cell-based; conditions: GDNF in the absence of GFRα1
Sequence of RET (P07949 29-1114): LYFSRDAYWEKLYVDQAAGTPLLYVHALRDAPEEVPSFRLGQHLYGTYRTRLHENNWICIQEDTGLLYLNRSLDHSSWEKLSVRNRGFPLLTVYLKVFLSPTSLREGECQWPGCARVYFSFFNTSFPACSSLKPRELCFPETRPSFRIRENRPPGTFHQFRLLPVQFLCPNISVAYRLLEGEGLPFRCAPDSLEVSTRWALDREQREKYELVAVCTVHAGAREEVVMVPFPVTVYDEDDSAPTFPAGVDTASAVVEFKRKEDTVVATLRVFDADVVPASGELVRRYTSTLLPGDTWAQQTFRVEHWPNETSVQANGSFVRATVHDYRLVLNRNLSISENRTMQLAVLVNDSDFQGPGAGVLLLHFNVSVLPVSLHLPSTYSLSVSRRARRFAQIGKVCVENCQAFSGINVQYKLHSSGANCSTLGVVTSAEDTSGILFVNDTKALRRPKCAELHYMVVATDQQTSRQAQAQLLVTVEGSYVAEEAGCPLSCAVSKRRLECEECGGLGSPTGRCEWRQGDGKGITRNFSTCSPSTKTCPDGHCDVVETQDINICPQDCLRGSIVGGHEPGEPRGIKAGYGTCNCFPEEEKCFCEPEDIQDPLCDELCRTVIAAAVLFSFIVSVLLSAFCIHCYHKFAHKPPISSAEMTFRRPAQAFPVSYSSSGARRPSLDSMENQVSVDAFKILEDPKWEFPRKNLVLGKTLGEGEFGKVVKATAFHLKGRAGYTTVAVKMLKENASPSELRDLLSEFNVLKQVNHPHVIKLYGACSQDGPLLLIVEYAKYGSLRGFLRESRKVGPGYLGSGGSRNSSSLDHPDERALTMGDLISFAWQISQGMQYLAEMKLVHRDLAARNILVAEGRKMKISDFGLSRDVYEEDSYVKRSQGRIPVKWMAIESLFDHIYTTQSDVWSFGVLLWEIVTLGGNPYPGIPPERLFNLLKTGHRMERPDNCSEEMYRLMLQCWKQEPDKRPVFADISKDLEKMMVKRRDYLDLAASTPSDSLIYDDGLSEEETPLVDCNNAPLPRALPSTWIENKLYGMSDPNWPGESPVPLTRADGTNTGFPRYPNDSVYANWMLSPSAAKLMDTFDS

[5] = tested on: midbrain dopamine neurons exposed to MPP+; test: Survival of MPP+-challenged dopamine neurons; format: cell-based, mouse; conditions: GDNF 10 ng/ml (≃[…]) with MPP+ 2 μM, 48 hours; vehicle 267.7±20.4
6-OHDA lesioned rats [6] = test: Optical density of DAT-ir fibers in the dorsal striatum; conditions: GDNF 3 μg/24 h
6-OHDA lesioned rats [7] = test: TH-ir cell bodies in the SNpc, CNN algorithm; format: in vivo, rat; conditions: GDNF 3 μg/24 h
6-OHDA lesioned rats [8] = test: DAT-ir cell bodies in the SNpc; format: in vivo, rat; conditions: GDNF 3 μg/24 h
[9] = tested on: wild-type midbrain dopamine neurons (TH-ir cells); test: Survival assay for primary dopamine neurons, wild-type; format: cell-based, mouse; conditions: GDNF 10 ng/ml ([…]), 5 days in vitro; vehicle 226.3±6.6
6-OHDA lesioned rats [10] = test: Amphetamine-induced rotational assay, unilateral 6-OHDA lesion; format: in vivo, rat; conditions: GDNF 3 μg/24 h intrastriatal 14 days; 12 weeks post lesion
ERK [11] = format: cell-based, murine; conditions: GDNF 200 ng/ml; vehicle 0.56±0.13
6-OHDA lesioned rats [12] = test: Optical density of TH-ir fibers in the dorsal striatum; conditions: GDNF 3 μg/24 h; 12 weeks post lesion
dopamine neurons = conditions: cited from earlier work
AKT [13] = format: cell-based, murine; conditions: GDNF 200 ng/ml; vehicle 0.91±0.20
GFRα1-RET = GFRα1-RET (Homo sapiens, UniProt P07949); test: RET phosphorylation assay; format: cell-based; conditions: GDNF 200 ng/ml, 15 min; vehicle 0.66±0.22
Sequence of GFRα1-RET (P07949 29-1114): as above
Sequence of GFRα1-RET (P56159 25-429 partner limits assumed): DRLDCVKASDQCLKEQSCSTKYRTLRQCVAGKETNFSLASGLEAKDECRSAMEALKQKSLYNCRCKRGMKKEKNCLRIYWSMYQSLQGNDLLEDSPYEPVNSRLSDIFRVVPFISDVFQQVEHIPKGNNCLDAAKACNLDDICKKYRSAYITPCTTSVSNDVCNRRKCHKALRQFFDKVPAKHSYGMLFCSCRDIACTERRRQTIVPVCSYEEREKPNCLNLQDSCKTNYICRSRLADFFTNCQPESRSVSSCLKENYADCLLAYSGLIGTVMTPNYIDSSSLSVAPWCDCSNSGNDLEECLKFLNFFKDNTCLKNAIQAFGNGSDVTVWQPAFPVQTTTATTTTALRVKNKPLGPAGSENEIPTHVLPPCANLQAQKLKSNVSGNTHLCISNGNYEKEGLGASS

TrkB = TrkB (Homo sapiens, UniProt Q16620); test: Luciferase reporter assay in MG87 cells expressing TrkB; format: cell-based; conditions: BDNF 100 ng/ml, overnight
Sequence of TrkB (Q16620 32-822, species assumed): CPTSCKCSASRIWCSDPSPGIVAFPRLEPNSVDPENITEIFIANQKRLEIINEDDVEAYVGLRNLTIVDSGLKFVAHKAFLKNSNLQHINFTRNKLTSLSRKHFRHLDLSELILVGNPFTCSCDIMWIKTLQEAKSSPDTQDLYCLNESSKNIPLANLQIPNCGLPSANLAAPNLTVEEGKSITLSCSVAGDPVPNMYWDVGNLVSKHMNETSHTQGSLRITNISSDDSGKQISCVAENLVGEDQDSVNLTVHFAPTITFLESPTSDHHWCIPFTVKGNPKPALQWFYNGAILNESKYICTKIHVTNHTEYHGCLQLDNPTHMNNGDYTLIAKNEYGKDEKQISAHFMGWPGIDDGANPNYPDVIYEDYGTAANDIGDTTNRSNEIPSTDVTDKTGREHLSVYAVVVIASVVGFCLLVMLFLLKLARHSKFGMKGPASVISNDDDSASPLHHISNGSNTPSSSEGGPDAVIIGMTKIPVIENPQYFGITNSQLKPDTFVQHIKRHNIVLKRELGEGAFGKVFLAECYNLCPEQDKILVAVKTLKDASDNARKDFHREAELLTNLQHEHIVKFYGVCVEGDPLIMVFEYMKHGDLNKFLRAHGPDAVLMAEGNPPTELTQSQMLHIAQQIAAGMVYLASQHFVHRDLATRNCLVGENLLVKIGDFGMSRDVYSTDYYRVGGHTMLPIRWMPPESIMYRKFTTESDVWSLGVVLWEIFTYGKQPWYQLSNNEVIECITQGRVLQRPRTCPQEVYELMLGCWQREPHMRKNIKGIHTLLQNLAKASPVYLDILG

Sequence of GFRα2-RET (P07949 29-1114): as the sequence (P07949 29-1114) above

B1: NRTN: human recombinant neurturin (protein, UniProt Q99748 96-197, looked up)
Neurturin: ARLGARPCGLRELEVRVSELGLGYASDETVLFRYCAGACEAAARVYDLGLRRLRQRRRLRRERVRAQPCCRPTAYEDEVSFLDAHSRYHTVHELSARECACV
level of ERK phosphorylation (pERK normalized to GAPDH) (ERK [1]): 1.14±0.15
level of RET phosphorylation (pRET band normalized to RET) (GFRα2-RET): 3.34±0.41
level of AKT phosphorylation (pAKT normalized to GAPDH) (AKT [2]): 1.72±0.13

B2: GDNF: Human recombinant glial cell line-derived neurotrophic factor (protein, UniProt P39905 78-211, looked up)
Glial cell line-derived …: SPDKQMAVLPRRERNRQAAAANPENSRGKGRRGQRGKNRGCVLTAIHLNVTDLGLGYETKEELIFRYCSGSCDAAETTYDKILKNLSRNRRLVSDKVGQACCRPIAFDDDLSFLDDNLVYHILRKHSAKRCGCI
survival promoting effect [3]: did not observe survival promoting effect
number of TH-ir fibers (neurite number) in the striatum (6-OHDA lesioned rats [4]): No statistically significant differences
RET activation (RET): did not activate RET
number of TH-ir neurons [5]: 333.0±12.6
DAT-ir fiber density relative to PBS (6-OHDA lesioned rats [6]): 9.9 times
density of DAT-ir fibers in the striatum (6-OHDA lesioned rats [6]; 12 weeks post lesion): 9.9±1.7 % of the intact side
number of TH-ir cell bodies relative to PBS (6-OHDA lesioned rats [7]): 2.5 times
number of TH-ir cell bodies relative to PG (6-OHDA lesioned rats [7]): 2.3 times
number of TH-ir cell bodies in the SNpc, Lesioned/Intact side (%) (6-OHDA lesioned rats [7]; 12 weeks post lesion, PBS 11.5±0.9, PG 12.6±0.9): 29.1±2.8 % of the intact side
number of DAT-ir cell bodies relative to PBS (6-OHDA lesioned rats [8]): 2.2 times
number of DAT-ir cell bodies in the SNpc (6-OHDA lesioned rats [8]; 12 weeks post lesion, PBS 9.5±1.4, PG 11.6±1.3): 20.7±2.9 % of the intact side
number of TH-ir cells [9]: 384.0±35.2
number of net ipsilateral turns (120 min) (6-OHDA lesioned rats [10]): 149.1±47.9
level of ERK phosphorylation (pERK normalized to GAPDH) (ERK [11]): 2.76±0.37
TH-ir fiber density relative to PBS treated rats (6-OHDA lesioned rats [12]): 2.6 times
density of TH-ir fibers in the striatum (6-OHDA lesioned rats [12]): 15.8±1.6 % of the intact side
GDNF concentration at which effects on neuronal survival are detected (dopamine neurons; ref 52): 1 ng/mL
GDNF concentration at which somewhat increase in survival is already detectable (dopamine neurons; ref 52): 0.1 ng/mL
GDNF concentration at which effects on neuronal survival are detected (dopamine neurons; ref 81): 5 ng/mL
level of AKT phosphorylation (pAKT normalized to GAPDH) (AKT [13]): 4.77±0.43
level of RET phosphorylation (pRET band normalized to RET) (GFRα1-RET): 2.59±0.33

B3: BDNF: brain-derived neurotrophic factor (protein, UniProt P23560 19-247, looked up)
Neurotrophic factor BDNF …: APMKEANIRGQGGLAYPGVRTHGTLESVNGPKAGSRGLTSLADTFEHVIEELLDEDQKVRPNEENNKDADLYTSRVMLSSQVPLEPPLLFLLEEYKNYLDAANMSMRVRRHSDPARRGELSVCDSISEWVTAADKKTAVDMSGGTVTVLEKVPVSKGQLKQYFYETKCNPMGYTKEGCRGIDKRHWNSQCRTTQSYVRALTMDSKKRIGWRFIRIDTSCVCTLTIKRGR
luciferase activity in reporter cells expressing TrkB (TrkB): increased the luciferase activity

From article PMC8461720 (Journal of Parkinson's Disease, 2021)
